{"source": "patent US8299097B2", "about": "“Methods for treating inflammatory disorders” (The Brigham and Women's Hospital, Inc., priority 2008, dated 2012)", "key": {"[1]": {"test_system": "LAD2 cells", "assay": "MIP-1β generation by LAD2 cells (ELISA)", "assay_type": "cell-based, human", "conditions": "apyrase 10 μM, LTE4 500 nM, 6 h", "protocol": "FIG. 2. Requirement for P2Y12 receptors in LTE4-mediated LAD2 cell activation. 2A. Calcium flux of LAD2 cells stimulated with the indicated agonists (500 nM) in the presence or absence of the P2Y12 receptor-selective antagonist 2-MeSAMP (100 μM). […] 2B. […] Cells sensitized overnight with IgE and challenged with anti-IgE were used as the positive control. 2C. […] Results in 2B and 2C are mean±SEM from three independent experiments each. 2D. Effect of shRNA-mediated knockdown of P2Y12 receptor mRNA expression by LAD2 cells.\n(§1) FIG. 9. Effect of apyrase treatment on LT-mediated activation of LAD2 cells. 9A. […] Concentrations of MIP-1β were measured by ELISA. 9B. […] Lysates were resolved by SDS-PAGE and probed with the indicated antibodies against phospho- and total ERK. Results in 9A are the mean±½ range from two experiments, while 9B is representative of two experiments.\n(§2) Pre-treatment of the LAD2 cells with 2-MesAMP blocked the LTE4-mediated increment in MIP-1β production by >50% (FIG. 2B). […] To exclude potential off-target effects of the inhibitors, samples of LAD2 cells were transfected with lentiviruses encoding a P2Y12 sequence-specific shRNA, a CysLT1R-specific shRNA, or an empty vector control before stimulation. […] LTE4- and LTD4-dependent production of PGD2 were abrogated by the knockdowns of P2Y12 and CysLT1R, respectively (FIG. 2C, bottom). Neither GPCR knockdown altered MIP-1β generation or PGD2 production in response to IgE-anti-IgE (FIG. 2C). LTE4-mediated MIP-1β generation (FIG. 9A) and ERK activation (FIG. 9B) were not altered by treatment of LAD2 cells with apyrase to degrade extracellular ADP.\nThe concentration of MIP-1β was measured by an ELISA (ENDOGEN®). PGD2 was quantitated by a PGD2-methoxylamine hydrochloride (PGD2-MOX) assay."}, "[2]": {"test_system": "LAD2 cells", "assay": "ERK activation in LAD2 cells with apyrase", "assay_type": "cell-based, human", "conditions": "LTE4 500 nM, 15 minutes", "protocol": "as §1, §2\nAfter stimulation with the respective agonists, LAD2 cells and hMCs (0.5×10^6) were lysed with lysis buffer (BD Bioscience) supplemented with protease inhibitor cocktail (Roche) and sodium vanadate (1 mM). Lysates were subjected to 4-12% SDS-PAGE and transferred to PVDF membranes. […]"}, "[3]": {"biological_target": "T1, human CysLT1R (Homo sapiens, UniProt Q9Y271)", "T1 construct": "expressed in transfected cells", "T1 sequence (Q9Y271 1-337)": "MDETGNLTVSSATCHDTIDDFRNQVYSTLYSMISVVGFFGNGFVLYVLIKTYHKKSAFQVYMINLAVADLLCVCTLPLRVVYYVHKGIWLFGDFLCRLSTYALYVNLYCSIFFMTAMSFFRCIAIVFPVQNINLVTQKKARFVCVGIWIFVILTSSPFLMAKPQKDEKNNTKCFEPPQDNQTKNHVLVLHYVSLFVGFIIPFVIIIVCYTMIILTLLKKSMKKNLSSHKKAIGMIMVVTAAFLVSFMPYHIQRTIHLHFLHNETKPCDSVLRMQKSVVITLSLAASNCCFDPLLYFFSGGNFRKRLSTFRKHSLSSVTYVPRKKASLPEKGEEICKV", "assay": "ERK activation in CysLT1R CHO transfectants", "assay_type": "cell-based", "protocol": "(§3) FIG. 1. Activation by recombinant human P2Y12 receptors in response to cys-LTs. The human P2Y12 receptor cDNA was cloned in forward and reverse orientation into the expression vector pEF1/His B and transfected into CHO cells using Fugene HD reagent. Stably-expressing clones were selected using G418 (1000 μg/ml), and expression of the construct was confirmed by cytofluorographic detection of the HIS tag. 1A. […] 1B. SDS-PAGE immunoblots showing phosphorylation of ERK2 by CHO cells stably expressing human P2Y12 receptors in reverse (negative control) or forward orientations. […] The blots were stripped and re-probed with an antibody (Ab) recognizing total ERK1 and ERK2. […] 1C. Effect of the selective P2Y12 receptor antagonist 2-MesAMP (MeS) on ligand-induced ERK phosphorylation. P2Y12 receptor expressing CHO cells were stimulated with the same doses of agonists used in 1A, in the absence or presence of 2-MesAMP (100 μM). 1D. Comparison of P2Y12 receptor-mediated responses to cys-LTs with those of recombinant human CysLT1R and CysLT2R expressed in CHO cells, and the effect of the CysLT1R antagonist MK571 (1 μM).\n(§4) A P2Y12 receptor cDNA was amplified by reverse transcriptase polymerase chain reaction (RT-PCR) from RNA extracted from primary hMCs and cloned into a mammalian expression vector. Expression was confirmed by detection of a histidine (HIS) tag by flow cytometry. […]"}, "[4]": {"biological_target": "T2, human CysLT2R (Homo sapiens, UniProt Q9NS75)", "T2 construct": "expressed in transfected cells", "T2 sequence (Q9NS75 1-346)": "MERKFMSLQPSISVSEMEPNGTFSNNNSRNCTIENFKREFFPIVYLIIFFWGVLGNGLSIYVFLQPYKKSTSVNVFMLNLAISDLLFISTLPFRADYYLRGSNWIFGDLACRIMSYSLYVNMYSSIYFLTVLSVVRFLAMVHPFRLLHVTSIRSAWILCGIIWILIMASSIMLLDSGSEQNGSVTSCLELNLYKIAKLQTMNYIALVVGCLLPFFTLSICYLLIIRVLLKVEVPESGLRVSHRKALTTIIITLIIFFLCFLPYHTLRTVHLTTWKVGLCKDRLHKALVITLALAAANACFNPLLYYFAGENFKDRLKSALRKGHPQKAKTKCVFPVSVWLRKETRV", "assay": "ERK activation in CysLT2R CHO transfectants", "assay_type": "cell-based", "protocol": "as §3, §4"}, "[5]": {"biological_target": "human P2Y12 (Homo sapiens, UniProt Q9H244)", "sequence (Q9H244 whole entry)": "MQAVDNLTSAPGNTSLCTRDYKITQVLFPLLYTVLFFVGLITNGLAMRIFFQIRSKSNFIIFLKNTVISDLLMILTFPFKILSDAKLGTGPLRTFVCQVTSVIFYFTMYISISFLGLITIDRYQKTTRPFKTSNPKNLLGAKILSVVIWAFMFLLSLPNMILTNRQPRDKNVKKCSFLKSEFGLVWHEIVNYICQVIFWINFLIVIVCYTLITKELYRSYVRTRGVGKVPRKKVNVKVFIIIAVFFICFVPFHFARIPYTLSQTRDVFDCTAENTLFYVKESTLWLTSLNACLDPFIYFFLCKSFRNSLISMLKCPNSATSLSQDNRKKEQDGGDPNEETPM", "assay": "ERK activation (phosphorylation immunoblot) in P2Y12-expressing CHO cells", "assay_type": "cell-based", "set-up": "polyhistidine (HIS) tag (C); expressed in transfected cells", "conditions": "2-MesAMP 100 μM, MK571 1 μM", "protocol": "FIG. 1. Activation by recombinant human P2Y12 receptors in response to cys-LTs. The human P2Y12 receptor cDNA was cloned in forward and reverse orientation into the expression vector pEF1/His B and transfected into CHO cells using Fugene HD reagent. Stably-expressing clones were selected using G418 (1000 μg/ml), and expression of the construct was confirmed by cytofluorographic detection of the HIS tag. 1A. […] Results in second experiment were identical. 1B. SDS-PAGE immunoblots showing phosphorylation of ERK2 by CHO cells stably expressing human P2Y12 receptors in reverse (negative control) or forward orientations. […] The blots were stripped and re-probed with an antibody (Ab) recognizing total ERK1 and ERK2. […] 1C. Effect of the selective P2Y12 receptor antagonist 2-MesAMP (MeS) on ligand-induced ERK phosphorylation. P2Y12 receptor expressing CHO cells were stimulated with the same doses of agonists used in 1A, in the absence or presence of 2-MesAMP (100 μM). 1D. Comparison of P2Y12 receptor-mediated responses to cys-LTs with those of recombinant human CysLT1R and CysLT2R expressed in CHO cells, and the effect of the CysLT1R antagonist MK571 (1 μM). Data in 1B-1D are from individual experiments that were repeated at least 3 times with similar results.\nFIG. 8. […] Cells were stably transfected with the human P2Y12 construct and stimulated for 15 minutes with the indicated ligand concentrations. […] Results in a second experiment were similar.\nA P2Y12 receptor cDNA was amplified by reverse transcriptase polymerase chain reaction (RT-PCR) from RNA extracted from primary hMCs and cloned into a mammalian expression vector. Expression was confirmed by detection of a histidine (HIS) tag by flow cytometry. Another cohort of CHO cells were stably transfected with a P2Y12 receptor construct in reverse orientation as a negative control. […] The cys-LT-induced ERK activation blocked by pre-treatment of the cells with pertussis toxin (PTX), was attenuated by treatment with the P2Y12 receptor-selective antagonist 2-methylthioadenosine monophosphate (2-MesAMP) (FIG. 1C), and was resistant to MK571, an inhibitor that blocks CysLT1R and some P2Y receptors (Mamedova, L., et al. 2005. Biochem. Pharmacol. 71:115-125). […] These responses were resistant to PTX and 2-MesAMP, and susceptible to MK571 in the case of the CysLT1R transfectants.\nA human P2Y12 receptor cDNA was amplified by 30 cycles of PCR from reverse-transcribed total RNA extracted from primary cord blood hMCs. The primer sequences were 5′-[…] (SEQ ID NO: 1) and 3′-[…] (SEQ ID NO: 2). The fragment was cloned into a TA vector (INVITROGEN™). After verifying the nucleotide sequence, the fragment was subcloned into the multiple cloning site of the expression vector pEF1/His B, encoding a C-terminal polyhistidine (HIS) tag. […]"}}, "data": [{"substance": "apyrase", "values": [{"measurement": "effect on LTE4-mediated MIP-1β generation", "setting": "[1]", "result": "not altered"}, {"measurement": "effect on LTE4-mediated ERK activation", "setting": "[2]", "result": "not altered"}]}, {"substance": "pertussis toxin", "values": [{"measurement": "effect on cys-LT-induced ERK activation", "setting": "[3]", "result": "resistant"}, {"measurement": "effect on cys-LT-induced ERK activation", "setting": "[4]", "result": "resistant"}, {"measurement": "effect on cys-LT-induced ERK activation", "setting": "[5]", "result": "blocked"}]}]}
